Measurements: IntAct's records for PubMed 17595167

B1: PAN2-PAN3 deadenylation complex subunit PAN3 (Homo sapiens), Q58A45 (parent)
chain: MNSGGGLPPPSAAASPSSSSLAAAVAVVAPPGVGGVPGGAAVGVKLKYCRYYAKDKTCFYGEECQFLHEDPAAGAAPGLGLHSNSVPLALAGAPVAGFPPGAVAGGGAGPPPGPKKPDLGDPGTGAAAGGGGSSGGLDGPRLAIPGMDGGALTDTSLTDSYFSTSFIGVNGFGSPVETKYPLMQRMTNSSSSPSLLNDSAKPYSAHDPLTSPASSLFNDFGALNISQRRKPRKYRLGMLEERLVPMGSKARKAKNPIGCLADRCKSGVPINMVWWNRVTENNLQTPNPTASEFIPKGGSTSRLSNVSQSNMSAFSQVFSHPSMGSPATAGLAPGMSLSAGSSPLHSPKITPHTSPAPRRRSHTPNPASYMVPSSASTSVNNPVSQTPSSGQVIQKETVGGTTYFYTDTTPAPLTGMVFPNYHIYPPTAPHVAYMQPKANAPSFFMADELRQELINRHLITMAQIDQADMPAVPTEVDSYHSLFPLEPLPPPNRIQKSSNFGYITSCYKAVNSKDDLPYCLRRIHGFRLVNTKCMVLVDMWKKIQHSNIVTLREVFTTKAFAEPSLVFAYDFHAGGETMMSRHFNDPNADAYFTKRKWGQHEGPLPRQHAGLLPESLIWAYIVQLSSALRTIHTAGLACRVMDPTKILITGKTRLRVNCVGVFDVLTFDNSQNNNPLALMAQYQQADLISLGKVVLALACNSLAGIQRENLQKAMELVTINYSSDLKNLILYLLTDQNRMRSVNDIMPMIGARFYTQLDAAQMRNDVIEEDLAKEVQNGRLFRLLAKLGTINERPEFQKDPTWSETGDRYLLKLFRDHLFHQVTEAGAPWIDLSHIISCLNKLDAGVPEKISLISRDEKSVLVVTYSDLKRCFENTFQELIAAANGQL

Variants of: B1
Conditions: with pabp1_human PABPC1, P11940
pabp1_human PABPC1, P11940, sequence (P11940 whole entry): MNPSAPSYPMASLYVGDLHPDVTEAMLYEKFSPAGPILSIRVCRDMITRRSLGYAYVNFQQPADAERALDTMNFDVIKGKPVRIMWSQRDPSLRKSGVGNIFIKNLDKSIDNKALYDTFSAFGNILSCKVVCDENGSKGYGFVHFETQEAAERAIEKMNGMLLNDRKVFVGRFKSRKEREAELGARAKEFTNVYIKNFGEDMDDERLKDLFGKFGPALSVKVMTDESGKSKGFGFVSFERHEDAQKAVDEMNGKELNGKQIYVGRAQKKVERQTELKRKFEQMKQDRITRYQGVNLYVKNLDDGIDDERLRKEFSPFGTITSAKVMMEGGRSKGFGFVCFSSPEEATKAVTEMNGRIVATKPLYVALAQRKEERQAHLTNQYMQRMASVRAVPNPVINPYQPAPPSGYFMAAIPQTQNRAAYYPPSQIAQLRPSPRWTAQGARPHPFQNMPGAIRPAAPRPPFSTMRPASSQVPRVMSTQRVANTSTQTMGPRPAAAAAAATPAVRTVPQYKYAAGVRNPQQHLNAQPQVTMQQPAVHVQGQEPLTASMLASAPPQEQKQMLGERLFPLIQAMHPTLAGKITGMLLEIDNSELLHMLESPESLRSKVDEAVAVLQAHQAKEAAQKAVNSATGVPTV

How did the “effect of a mutation on the interaction” value turn out when F293A was run?
Its value is “decreasing interaction”.
